{
  "source": "paper PMC3104520",
  "about": "(Biochemistry, 2011)",
  "proteins": {"B1": {"name": "Surfactant protein A (SP-A), bovine (natural protein)", "chain": "not shown"}},
  "assay_in_all_cases": "diffusion NMR",
  "key": {"[1]": {"biological_target": "the molecule itself"}, "[2]": {"biological_target": "the molecule itself", "remark": "listed apart in the source"}, "[3]": {"biological_target": "the molecule itself", "remark": "listed apart in the source"}},
  "note": "Like-named read-outs stand apart in the source and are kept apart here.",
  "data": [
    {"protein": "B1", "values": [
      {"measurement": "stoichiometry N", "setting": "[1]", "value": "~10", "unit": "molecules"},
      {"measurement": "stoichiometry N", "setting": "[2]", "value": "~9", "unit": "molecules"},
      {"measurement": "stoichiometry N", "setting": "[3]", "value": "~12", "unit": "molecules"}
    ]}
  ]
}
